According to paper PMC8991989:

Biological target: Epidermal growth factor receptor (EGFR), labelled for MST (UniProt P00533)
Assay: MST

For “FIP-nha, a fungal immunomodulatory protein from Nectria haematococca (natural protein)”, the Kd was 15.5 µM.
